± gives the uncertainty stated by the source.

First the molecules themselves.
B1: Pituitary-specific positive transcription factor 1, residues 130 to 198; numbered along this chain, P28069 (parent)
chain: RELEKFANEFKVRRIKLGYTQTNVGEALAAVHGSEFSQTTICRFENLQLSFKNACKLKAILSKWLEEAE

Variants of B1 are the subject of the data set. The data set can be described thus: abundance fitness (aPCA) (normalised: wild type 0, dead -1); higher = more abundant; growth selection in yeast, the domain comes from the species named. As to conditions: Homo sapiens.
RELEKFANEFKVRRIKLGYTQTNVGEALAAVHGSEFSQTTICRMENLQLSFKNACKLKAILSKWLEEAE [F44M]: the abundance fitness was -0.89 ± 0.34.
With RELEKFANEFKVRRIKLGYTQTNVGEALAAVHGSEFSQTTICRYENLQLSFKNACKLKAILSKWLEEAE [F44Y], the abundance fitness was -0.842 ± 0.13.
Consider RELEKFANEFKVRRIKLGYTQTNVGEALAAVHGSEFSQTTICRHENLQLSFKNACKLKAILSKWLEEAE [F44H], for which the abundance fitness was -0.565 ± 0.24.
Take RELEKFANEFKVRRIKLGYTQTNVGEALAAVHGSEFSQTTICREENLQLSFKNACKLKAILSKWLEEAE [F44E]: the abundance fitness is -0.72 ± 0.18.
In the case of RELEKFANEFKVRRIKLGYTQTNVGEALAAVHGSEFSQTTICRIENLQLSFKNACKLKAILSKWLEEAE [F44I], the abundance fitness was -0.861 ± 0.18.
The same measure for RELEKFANEFKVRRIKLGYTQTNVGEALAAVHGSEFSQTTICRNENLQLSFKNACKLKAILSKWLEEAE [F44N]: -1.11 ± 0.38; for RELEKFANEFKVRRIKLGYTQTNVGEALAAVHGSEFSQTTICRQENLQLSFKNACKLKAILSKWLEEAE [F44Q]: -0.885 ± 0.28; for RELEKFANEFKVRRIKLGYTQTNVGEALAAVHGSEFSQTTICRPENLQLSFKNACKLKAILSKWLEEAE [F44P]: -0.936 ± 0.19.
Consider RELEKFANEFKVRRIKLGYTQTNVGEALAAVHGSEFSQTTICRLENLQLSFKNACKLKAILSKWLEEAE [F44L], for which the abundance fitness was -0.76 ± 0.077.
With RELEKFANEFKVRRIKLGYTQTNVGEALAAVHGSEFSQTTICRRENLQLSFKNACKLKAILSKWLEEAE [F44R] the figure was -0.871 ± 0.14.
Turning to RELEKFANEFKVRRIKLGYTQTNVGEALAAVHGSEFSQTTICRDENLQLSFKNACKLKAILSKWLEEAE [F44D], the abundance fitness is -0.866 ± 0.28.
On to RELEKFANEFKVRRIKLGYTQTNVGEALAAVHGSEFSQTTICRAENLQLSFKNACKLKAILSKWLEEAE [F44A], for which the abundance fitness was -0.958 ± 0.26.
With RELEKFANEFKVRRIKLGYTQTNVGEALAAVHGSEFSQTTICRWENLQLSFKNACKLKAILSKWLEEAE [F44W], the abundance fitness is -0.909 ± 0.17.
Turning to RELEKFANEFKVRRIKLGYTQTNVGEALAAVHGSEFSQTTICRVENLQLSFKNACKLKAILSKWLEEAE [F44V], the abundance fitness is -0.974 ± 0.12.
The same measure for RELEKFANEFKVRRIKLGYTQTNVGEALAAVHGSEFSQTTICRTENLQLSFKNACKLKAILSKWLEEAE [F44T]: -1.06 ± 0.23.
With RELEKFANEFKVRRIKLGYTQTNVGEALAAVHGSEFSQTTICRGENLQLSFKNACKLKAILSKWLEEAE [F44G], the abundance fitness was -1.03 ± 0.2.
As for RELEKFANEFKVRRIKLGYTQTNVGEALAAVHGSEFSQTTICNFENLQLSFKNACKLKAILSKWLEEAE [R43N], the abundance fitness is -0.085 ± 0.1.
The same measure for RELEKFANEFKVRRIKLGYTQTNVGEALAAVHGSEFSQTTICEFENLQLSFKNACKLKAILSKWLEEAE [R43E]: 0.119 ± 0.097; for RELEKFANEFKVRRIKLGYTQTNVGEALAAVHGSEFSQTTICTFENLQLSFKNACKLKAILSKWLEEAE [R43T]: -0.825 ± 0.15.
In the case of RELEKFANEFKVRRIKLGYTQTNVGEALAAVHGSEFSQTTICDFENLQLSFKNACKLKAILSKWLEEAE [R43D], the abundance fitness was 0.112 ± 0.16.
For the variant RELEKFANEFKVRRIKLGYTQTNVGEALAAVHGSEFSQTTICCFENLQLSFKNACKLKAILSKWLEEAE [R43C], the abundance fitness is -0.559 ± 0.12.
As to RELEKFANEFKVRRIKLGYTQTNVGEALAAVHGSEFSQTTICLFENLQLSFKNACKLKAILSKWLEEAE [R43L], the abundance fitness is -0.181 ± 0.052.
In the case of RELEKFANEFKVRRIKLGYTQTNVGEALAAVHGSEFSQTTICQFENLQLSFKNACKLKAILSKWLEEAE [R43Q], the abundance fitness was 0.11 ± 0.12.
As to RELEKFANEFKVRRIKLGYTQTNVGEALAAVHGSEFSQTTICVFENLQLSFKNACKLKAILSKWLEEAE [R43V], the abundance fitness is -0.966 ± 0.24.
RELEKFANEFKVRRIKLGYTQTNVGEALAAVHGSEFSQTTICIFENLQLSFKNACKLKAILSKWLEEAE [R43I]: the abundance fitness was -0.888 ± 0.3.
As to RELEKFANEFKVRRIKLGYTQTNVGEALAAVHGSEFSQTTICFFENLQLSFKNACKLKAILSKWLEEAE [R43F], the abundance fitness was -0.289 ± 0.42.
As for RELEKFANEFKVRRIKLGYTQTNVGEALAAVHGSEFSQTTICSFENLQLSFKNACKLKAILSKWLEEAE [R43S], the abundance fitness was -0.416 ± 0.077.
Regarding RELEKFANEFKVRRIKLGYTQTNVGEALAAVHGSEFSQTTICGFENLQLSFKNACKLKAILSKWLEEAE [R43G], the abundance fitness is -0.388 ± 0.14.
With RELEKFANEFKVRRIKLGYTQTNVGEALAAVHGSEFSQTTICMFENLQLSFKNACKLKAILSKWLEEAE [R43M], the abundance fitness amounted to 0.234 ± 0.17.
For the variant RELEKFANEFKVRRIKLGYTQTNVGEALAAVHGSEFSQTTICYFENLQLSFKNACKLKAILSKWLEEAE [R43Y], the abundance fitness is -0.846 ± 0.47.
Take RELEKFANEFKVRRIKLGYTQTNVGEALAAVHGSEFSQTTICAFENLQLSFKNACKLKAILSKWLEEAE [R43A]: the abundance fitness was 0.12 ± 0.076.
With RELEKFANEFKVRRIKLGYTQTNVGEALAAVHGSEFSQTTICPFENLQLSFKNACKLKAILSKWLEEAE [R43P], the abundance fitness is -0.855 ± 0.11.
With RELEKFANEFKVRRIKLGYTQTNVGEALAAVHGSEFSQTTIWRFENLQLSFKNACKLKAILSKWLEEAE [C42W] the figure was -0.101 ± 0.059; with RELEKFANEFKVRRIKLGYTQTNVGEALAAVHGSEFSQTTIYRFENLQLSFKNACKLKAILSKWLEEAE [C42Y], -0.243 ± 0.12; with RELEKFANEFKVRRIKLGYTQTNVGEALAAVHGSEFSQTTICRFENFQLSFKNACKLKAILSKWLEEAE [L47F], -0.562 ± 0.12.
Turning to RELEKFANEFKVRRIKLGYTQTNVGEALAAVHGSEFSQTTICRFENDQLSFKNACKLKAILSKWLEEAE [L47D], the abundance fitness was -0.689 ± 0.15.
As to RELEKFANEFKVRRIKLGYTQTNVGEALAAVHGSEFSQTTICRFENNQLSFKNACKLKAILSKWLEEAE [L47N], the abundance fitness amounted to 0.187 ± 0.065.
For the variant RELEKFANEFKVRRIKLGYTQTNVGEALAAVHGSEFSQTTICRFENEQLSFKNACKLKAILSKWLEEAE [L47E], the abundance fitness is -0.635 ± 0.16.
With RELEKFANEFKVRRIKLGYTQTNVGEALAAVHGSEFSQTTICRFENMQLSFKNACKLKAILSKWLEEAE [L47M], the abundance fitness stood at 0.263 ± 0.082.
